Experimental data from article PMC5546430.

Target: T1, human TMEM192 with a C-terminally fused HA epitope (human), Q8IY95
T1 chain: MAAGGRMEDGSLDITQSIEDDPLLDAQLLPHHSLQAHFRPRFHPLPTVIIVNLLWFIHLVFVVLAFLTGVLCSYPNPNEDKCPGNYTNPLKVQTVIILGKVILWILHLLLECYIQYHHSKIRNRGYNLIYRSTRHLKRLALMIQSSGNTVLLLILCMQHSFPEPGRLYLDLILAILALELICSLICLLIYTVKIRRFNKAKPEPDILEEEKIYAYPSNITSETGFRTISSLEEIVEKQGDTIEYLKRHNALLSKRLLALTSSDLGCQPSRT
Assay: non-reducing SDS-PAGE and Western blot; total lysates of transiently transfected HeLa cells denatured 5 min at 95°C in the absence of DTT; detection with anti-HA antibody 3F10; shows only disulphide-linked dimers
Settings: remark: other sources report otherwise

stoichiometry N: 2
B1: human TMEM192 with a C-terminally fused HA epitope, Q8IY95 1-271 (natural protein)
chain: MAAGGRMEDGSLDITQSIEDDPLLDAQLLPHHSLQAHFRPRFHPLPTVIIVNLLWFIHLVFVVLAFLTGVLCSYPNPNEDKCPGNYTNPLKVQTVIILGKVILWILHLLLECYIQYHHSKIRNRGYNLIYRSTRHLKRLALMIQSSGNTVLLLILCMQHSFPEPGRLYLDLILAILALELICSLICLLIYTVKIRRFNKAKPEPDILEEEKIYAYPSNITSETGFRTISSLEEIVEKQGDTIEYLKRHNALLSKRLLALTSSDLGCQPSRT
